Target: T1, HSC70 (Homo sapiens, UniProt P11142)
T1 construct: made in house
Experiment: ELISA binding of HSC70 to immobilized CFTR NBD1 and competition by soluble peptides
Conditions: immobilized NBD1 incubated at 30 °C, direct comparison with immobilized 1097-L; n = 3, p < 0.01
Protocol: HSC70, DJA1 and DJA2 were purified as His-tagged proteins, as described. HSC70 was also amplified by PCR with an N-terminal FLAG tag, inserted into pPROEXHTa (Invitrogen) and purified as described. HSC70 was stored in 100 mM KOAc, 20 mM HEPES-KOH pH 7.5, 5 mM MgOAC2 (buffer G), DJA1 and DJA2 in 500 mM NaCl, 20 mM HEPES-KOH pH 7.5, 5 mM MgOAC2 (buffer H). Avi-tagged CFTR NBD1 was purified as described.
For NBD1 binding, 100 nM of strep-tagged NBD1 in 100 µl of 150 mM NaCl, 50 mM Na2HPO4 pH 7.5, 1 mM ATP, and 40 µM DTT (buffer N), was bound to streptavidin plates for 1 hour at 4 °C with agitation. Plates were washed with PBST and incubated in buffer N at 30 °C in a water bath for 5 min. Then, plates were blocked in PBST containing 0.5% BSA, followed by the addition of HSC70 binding reactions, and detection as above.

T1 sequence (P11142 whole entry): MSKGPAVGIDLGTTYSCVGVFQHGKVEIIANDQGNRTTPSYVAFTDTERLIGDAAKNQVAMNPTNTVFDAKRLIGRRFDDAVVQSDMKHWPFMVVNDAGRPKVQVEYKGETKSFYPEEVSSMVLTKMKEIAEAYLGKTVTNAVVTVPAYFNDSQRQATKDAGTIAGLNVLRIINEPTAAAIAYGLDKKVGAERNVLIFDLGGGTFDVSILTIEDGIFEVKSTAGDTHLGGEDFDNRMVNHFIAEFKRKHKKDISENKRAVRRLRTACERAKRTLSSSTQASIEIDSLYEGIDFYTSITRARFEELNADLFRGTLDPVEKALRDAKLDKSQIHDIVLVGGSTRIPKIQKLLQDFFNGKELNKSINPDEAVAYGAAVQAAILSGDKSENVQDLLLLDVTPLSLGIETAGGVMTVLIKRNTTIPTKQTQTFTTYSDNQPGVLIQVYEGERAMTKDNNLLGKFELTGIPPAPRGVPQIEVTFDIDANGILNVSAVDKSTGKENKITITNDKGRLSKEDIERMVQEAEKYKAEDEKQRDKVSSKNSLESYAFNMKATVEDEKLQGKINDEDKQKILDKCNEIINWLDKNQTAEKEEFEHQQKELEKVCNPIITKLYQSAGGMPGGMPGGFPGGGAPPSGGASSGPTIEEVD

B1: NBD1: Avi-tagged CFTR NBD1, purified and immobilized on streptavidin plates (protein)
chain: TTEVVMENVTAFWEEGFGELFEKAKQNNNNRKTSNGDDSLFFSNFSLLGTPVLKDINFKIERGQLLAVAGSTGAGKTSLLMVIMGELEPSEGKIKHSGRISFCSQFSWIMPGTIKENIIFGVSYDEYRYRSVIKACQLEEDISKFAEKDNIVLGEGGITLSGGQRARISLARAVYKDADLYLLDSPFGYLDVLTEKEIFESCVCKLMANKTRILVTSKMEHLKKADKILILHEGSSYFYGTFSELQNLQPDFSSKLMGCDSFDQFSAERRNSILTETLHRFSLEGDAPVS
modifications: left off: Avi-tag, end not stated, kept
notes: Avi-tagged CFTR NBD1, purified and immobilized on streptavidin plates
HSC70 binding to NBD1 relative to that observed for 1097-L: 73 ± 3%
